Measurements reported in patent US20120201854A1 (INDUSTRY FOUNDATION OF CHONNAM NATIONAL UNIVERSITY, published 2012).

Key:
[1] = molecular target: toll-like receptor-5 (hTLR5) expressed in 293T cells from p3xFlag-hTLR5 plasmid (human (printed only as hTLR5), UniProt O60602 21-858); assay: cell-based or functional assay
[2] = molecular target: the molecule itself; assay: native-gel electrophoresis, self-association in aqueous solution

toll-like receptor-5 (hTLR5) expressed in 293T cells from p3xFlag-hTLR5 plasmid, sequence (O60602 21-858): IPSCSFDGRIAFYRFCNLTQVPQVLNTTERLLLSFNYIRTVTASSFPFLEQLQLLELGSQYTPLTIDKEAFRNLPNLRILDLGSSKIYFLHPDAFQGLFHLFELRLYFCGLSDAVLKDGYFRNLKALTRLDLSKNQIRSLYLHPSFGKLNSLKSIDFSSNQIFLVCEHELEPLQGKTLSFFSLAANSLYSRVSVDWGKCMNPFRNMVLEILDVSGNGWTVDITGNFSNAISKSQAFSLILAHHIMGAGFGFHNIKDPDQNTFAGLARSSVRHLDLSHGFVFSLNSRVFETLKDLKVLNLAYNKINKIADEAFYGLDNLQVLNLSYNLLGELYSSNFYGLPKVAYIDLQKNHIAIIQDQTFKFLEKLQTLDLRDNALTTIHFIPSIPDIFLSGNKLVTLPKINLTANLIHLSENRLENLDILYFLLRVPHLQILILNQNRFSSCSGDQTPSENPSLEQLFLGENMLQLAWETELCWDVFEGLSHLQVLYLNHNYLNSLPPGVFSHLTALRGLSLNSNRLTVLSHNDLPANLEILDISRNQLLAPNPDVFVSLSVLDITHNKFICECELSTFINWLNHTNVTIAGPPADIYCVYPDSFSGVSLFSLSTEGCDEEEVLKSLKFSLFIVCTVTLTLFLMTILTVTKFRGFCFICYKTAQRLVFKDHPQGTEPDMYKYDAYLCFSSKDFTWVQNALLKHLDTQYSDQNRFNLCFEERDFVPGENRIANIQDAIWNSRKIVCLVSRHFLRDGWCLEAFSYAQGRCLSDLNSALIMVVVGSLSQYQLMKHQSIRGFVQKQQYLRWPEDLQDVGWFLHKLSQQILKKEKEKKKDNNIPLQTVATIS

B1: flagellin mutant (N153W) of V. vulnificus flagellin FlaB (ligand)
chain: MAVNVNTNVAAMTAQRYLNNANSAQQTSMERLSSGFKINSAKDDAAGLQISNRLNVQSRGLDVAVRNANDGISIAQTAEGAMNETTNILQRMRDLSLQSANGSNSKSERVAIQEEVTALNDELNRIAETTSFGGNKLLNGTYGTKAMQIGADWGEAVMLSLKDMRSDNVMMGGVSYQAEEGKDKNWNVAAGDNDLTIALTDSFGNEQEIEINAKAGDDIEELATYINGQTDLVKASVGEGGKLQIFAGNNKVQGEIAFSGSLAGELGLGEGKNVTVDTIDVTTVQGAQESVAIVDAALKYVDSHRAELGAFQNRFNHAISNLDNINENVNASKSRIKDTDFAKETTQLTKTQILSQASSSILAQAKQAPNSALSLLG
notes: Recombinant, from pTYB12 intein fusion in E. coli ER2566
For B1, the “increase in TLR5-mediated NF-κB transcription activity (luciferase reporter, 293T cells, 20 ng/ml) compared to PBS control” value (“increase” below) [1] was ~24.5 fold and the binding result [2] was “binds”.

B2: flagellin mutant (L97W) of V. vulnificus flagellin FlaB (ligand)
chain: MAVNVNTNVAAMTAQRYLNNANSAQQTSMERLSSGFKINSAKDDAAGLQISNRLNVQSRGLDVAVRNANDGISIAQTAEGAMNETTNILQRMRDLSWQSANGSNSKSERVAIQEEVTALNDELNRIAETTSFGGNKLLNGTYGTKAMQIGADNGEAVMLSLKDMRSDNVMMGGVSYQAEEGKDKNWNVAAGDNDLTIALTDSFGNEQEIEINAKAGDDIEELATYINGQTDLVKASVGEGGKLQIFAGNNKVQGEIAFSGSLAGELGLGEGKNVTVDTIDVTTVQGAQESVAIVDAALKYVDSHRAELGAFQNRFNHAISNLDNINENVNASKSRIKDTDFAKETTQLTKTQILSQASSSILAQAKQAPNSALSLLG
notes: as for B1
With B2 the “increase” value [1] was ~25 fold and the binding result [2] was “binds”.

B3: flagellin mutant (S103W) of V. vulnificus flagellin FlaB (ligand)
chain: MAVNVNTNVAAMTAQRYLNNANSAQQTSMERLSSGFKINSAKDDAAGLQISNRLNVQSRGLDVAVRNANDGISIAQTAEGAMNETTNILQRMRDLSLQSANGWNSKSERVAIQEEVTALNDELNRIAETTSFGGNKLLNGTYGTKAMQIGADNGEAVMLSLKDMRSDNVMMGGVSYQAEEGKDKNWNVAAGDNDLTIALTDSFGNEQEIEINAKAGDDIEELATYINGQTDLVKASVGEGGKLQIFAGNNKVQGEIAFSGSLAGELGLGEGKNVTVDTIDVTTVQGAQESVAIVDAALKYVDSHRAELGAFQNRFNHAISNLDNINENVNASKSRIKDTDFAKETTQLTKTQILSQASSSILAQAKQAPNSALSLLG
notes: as for B1
With B3 the “increase” value [1] was ~23.7 fold and the binding result [2] was “binds”.

B4: flagellin mutant (R93A) of V. vulnificus flagellin FlaB (ligand)
chain: MAVNVNTNVAAMTAQRYLNNANSAQQTSMERLSSGFKINSAKDDAAGLQISNRLNVQSRGLDVAVRNANDGISIAQTAEGAMNETTNILQRMADLSLQSANGSNSKSERVAIQEEVTALNDELNRIAETTSFGGNKLLNGTYGTKAMQIGADNGEAVMLSLKDMRSDNVMMGGVSYQAEEGKDKNWNVAAGDNDLTIALTDSFGNEQEIEINAKAGDDIEELATYINGQTDLVKASVGEGGKLQIFAGNNKVQGEIAFSGSLAGELGLGEGKNVTVDTIDVTTVQGAQESVAIVDAALKYVDSHRAELGAFQNRFNHAISNLDNINENVNASKSRIKDTDFAKETTQLTKTQILSQASSSILAQAKQAPNSALSLLG
notes: as for B1
With B4 the “increase” value [1] was ~14 fold and the binding result [2] was “binds”.

B5: flagellin mutant (E108A) of V. vulnificus flagellin FlaB (ligand)
chain: MAVNVNTNVAAMTAQRYLNNANSAQQTSMERLSSGFKINSAKDDAAGLQISNRLNVQSRGLDVAVRNANDGISIAQTAEGAMNETTNILQRMRDLSLQSANGSNSKSARVAIQEEVTALNDELNRIAETTSFGGNKLLNGTYGTKAMQIGADNGEAVMLSLKDMRSDNVMMGGVSYQAEEGKDKNWNVAAGDNDLTIALTDSFGNEQEIEINAKAGDDIEELATYINGQTDLVKASVGEGGKLQIFAGNNKVQGEIAFSGSLAGELGLGEGKNVTVDTIDVTTVQGAQESVAIVDAALKYVDSHRAELGAFQNRFNHAISNLDNINENVNASKSRIKDTDFAKETTQLTKTQILSQASSSILAQAKQAPNSALSLLG
notes: as for B1
With B5 the “increase” value [1] was ~21 fold and the binding result [2] was “binds”.

B6: flagellin mutant (D70A) of V. vulnificus flagellin FlaB (ligand)
chain: MAVNVNTNVAAMTAQRYLNNANSAQQTSMERLSSGFKINSAKDDAAGLQISNRLNVQSRGLDVAVRNANAGISIAQTAEGAMNETTNILQRMRDLSLQSANGSNSKSERVAIQEEVTALNDELNRIAETTSFGGNKLLNGTYGTKAMQIGADNGEAVMLSLKDMRSDNVMMGGVSYQAEEGKDKNWNVAAGDNDLTIALTDSFGNEQEIEINAKAGDDIEELATYINGQTDLVKASVGEGGKLQIFAGNNKVQGEIAFSGSLAGELGLGEGKNVTVDTIDVTTVQGAQESVAIVDAALKYVDSHRAELGAFQNRFNHAISNLDNINENVNASKSRIKDTDFAKETTQLTKTQILSQASSSILAQAKQAPNSALSLLG
notes: Recombinant, expressed in E. coli ER2566 from pTYB12 as intein fusion, released with DTT
For B6, the “increase” value [1] was ~24.6 fold and the binding result [2] was “binds”.

B7: flagellin mutant (A151W) of V. vulnificus flagellin FlaB (ligand)
chain: MAVNVNTNVAAMTAQRYLNNANSAQQTSMERLSSGFKINSAKDDAAGLQISNRLNVQSRGLDVAVRNANDGISIAQTAEGAMNETTNILQRMRDLSLQSANGSNSKSERVAIQEEVTALNDELNRIAETTSFGGNKLLNGTYGTKAMQIGWDNGEAVMLSLKDMRSDNVMMGGVSYQAEEGKDKNWNVAAGDNDLTIALTDSFGNEQEIEINAKAGDDIEELATYINGQTDLVKASVGEGGKLQIFAGNNKVQGEIAFSGSLAGELGLGEGKNVTVDTIDVTTVQGAQESVAIVDAALKYVDSHRAELGAFQNRFNHAISNLDNINENVNASKSRIKDTDFAKETTQLTKTQILSQASSSILAQAKQAPNSALSLLG
notes: as for B1
B7 was tested, and the “increase” value [1] was ~22.5 fold and the binding result [2] was “binds”.

B8: flagellin mutant (D70A/N135D) of V. vulnificus flagellin FlaB (ligand)
chain: MAVNVNTNVAAMTAQRYLNNANSAQQTSMERLSSGFKINSAKDDAAGLQISNRLNVQSRGLDVAVRNANAGISIAQTAEGAMNETTNILQRMRDLSLQSANGSNSKSERVAIQEEVTALNDELNRIAETTSFGGDKLLNGTYGTKAMQIGADNGEAVMLSLKDMRSDNVMMGGVSYQAEEGKDKNWNVAAGDNDLTIALTDSFGNEQEIEINAKAGDDIEELATYINGQTDLVKASVGEGGKLQIFAGNNKVQGEIAFSGSLAGELGLGEGKNVTVDTIDVTTVQGAQESVAIVDAALKYVDSHRAELGAFQNRFNHAISNLDNINENVNASKSRIKDTDFAKETTQLTKTQILSQASSSILAQAKQAPNSALSLLG
notes: Recombinant, from pTYB12 intein fusion in E. coli ER2566; also called dual site-directed mutant flagellin
B8 was tested, and the “increase” value [1] was ~14.9 fold and the binding result [2] was “binds”.

B9: flagellin mutant (N101A) of V. vulnificus flagellin FlaB (ligand)
chain: MAVNVNTNVAAMTAQRYLNNANSAQQTSMERLSSGFKINSAKDDAAGLQISNRLNVQSRGLDVAVRNANDGISIAQTAEGAMNETTNILQRMRDLSLQSAAGSNSKSERVAIQEEVTALNDELNRIAETTSFGGNKLLNGTYGTKAMQIGADNGEAVMLSLKDMRSDNVMMGGVSYQAEEGKDKNWNVAAGDNDLTIALTDSFGNEQEIEINAKAGDDIEELATYINGQTDLVKASVGEGGKLQIFAGNNKVQGEIAFSGSLAGELGLGEGKNVTVDTIDVTTVQGAQESVAIVDAALKYVDSHRAELGAFQNRFNHAISNLDNINENVNASKSRIKDTDFAKETTQLTKTQILSQASSSILAQAKQAPNSALSLLG
notes: as for B1
In the case of B9, the “increase” value [1] is reported as ~22.6 fold and the binding result [2] is reported as “binds”.

B10: flagellin mutant (V291W) of V. vulnificus flagellin FlaB (ligand)
chain: MAVNVNTNVAAMTAQRYLNNANSAQQTSMERLSSGFKINSAKDDAAGLQISNRLNVQSRGLDVAVRNANDGISIAQTAEGAMNETTNILQRMRDLSLQSANGSNSKSERVAIQEEVTALNDELNRIAETTSFGGNKLLNGTYGTKAMQIGADNGEAVMLSLKDMRSDNVMMGGVSYQAEEGKDKNWNVAAGDNDLTIALTDSFGNEQEIEINAKAGDDIEELATYINGQTDLVKASVGEGGKLQIFAGNNKVQGEIAFSGSLAGELGLGEGKNVTVDTIDVTTVQGAQESWAIVDAALKYVDSHRAELGAFQNRFNHAISNLDNINENVNASKSRIKDTDFAKETTQLTKTQILSQASSSILAQAKQAPNSALSLLG
notes: as for B1
For B10, the “increase” value [1] was ~16.6 fold and the binding result [2] was “binds”.

B11: flagellin mutant (N135D) of V. vulnificus flagellin FlaB (ligand)
chain: MAVNVNTNVAAMTAQRYLNNANSAQQTSMERLSSGFKINSAKDDAAGLQISNRLNVQSRGLDVAVRNANDGISIAQTAEGAMNETTNILQRMRDLSLQSANGSNSKSERVAIQEEVTALNDELNRIAETTSFGGDKLLNGTYGTKAMQIGADNGEAVMLSLKDMRSDNVMMGGVSYQAEEGKDKNWNVAAGDNDLTIALTDSFGNEQEIEINAKAGDDIEELATYINGQTDLVKASVGEGGKLQIFAGNNKVQGEIAFSGSLAGELGLGEGKNVTVDTIDVTTVQGAQESVAIVDAALKYVDSHRAELGAFQNRFNHAISNLDNINENVNASKSRIKDTDFAKETTQLTKTQILSQASSSILAQAKQAPNSALSLLG
notes: as for B1
For B11, the “increase” value [1] was ~21.7 fold and the binding result [2] was “binds”.
